Reference: patent US20220174981A1, “PROLINE TOLERANT TRIPEPTIDYL PEPTIDASES AND USES THEREOF” (DuPont Nutrition Biosciences APS, priority 2014, published 2022)

What was measured:
H-Ala-Ala-Ala-pNA = test: Exopeptidase Broad-Specificity Assay (EBSA) with H-Ala-Ala-Ala-pNA; pH and temperature profile; format: biochemical; details: H-Ala-Ala-Ala-pNA; 20 mM Na-glycine pH 2.0-4.0 or Na-acetate pH 4.0-5.5
Method: 10 μL of the chromogenic peptide solution (10 mM H-Ala-Ala-Ala-pNA dissolved in dimethyl sulfoxide (DMSO); MW=387.82; Bachem, Switzerland) were added to 130 μl Na-acetate (20 mM, adjusted to pH 4.0 with acetic acid) in a microtiter plate and heated for 5 minutes at 40° C. 10 μL of appropriately diluted enzyme was added and the absorption was measured in a MTP reader (Versa max, Molecular Devices, Denmark) at 405 nm. One katal of proteolytic activity was defined as the amount of enzyme required to release 1 mole of p-nitroaniline per second.
The chromogenic peptide H-Ala-Ala-Ala-pNA (MW=387.82; Bachem, Switzerland) was used to determine the activity of proline tolerant tripeptidyl peptidase in the samples produced as described above. The assay was conducted as follows, 10 μL of the chromogenic peptide solution (10 mM dissolved in dimethyl sulfoxide; DMSO) were added to 130 μl Na-acetate (20 mM, adjusted to pH 4.0 with acetic acid) in a microtiter plate and heated for 5 minutes at 40° C. 10 μL of appropriately diluted enzyme was added and the absorption was measured in an MTP reader (Versa max, Molecular Devices, Denmark) at 405 nm. One katal of proteolytic activity was defined as the amount of enzyme required to release 1 mole of p-nitroaniline per second.
The proline tolerant tripeptidyl peptidase assay described with H-Ala-Ala-Ala-pNA substrate above with modification of using the buffers 20 mM Na-glycine (pH 2.0, 2.5, 3.0, 3.5 and 4.0) or 20 mM Na-acetate buffer (pH 4.0, 4.5 and 5.5) was used to determine the pH profile of proline tolerant tripeptidyl peptidase TRI083 (FIG. 2) and TRI045 (FIG. 24)..
The proline tolerant tripeptidyl peptidase assay described above was used at temperatures 25, 50, 55, 60, 65, 70, 75, 80 and 85° C.
For proline tolerant tripeptidyl peptidase the chromogenic peptide H-Ala-Ala-Ala-pNA was used. The assay was conducted as follows, 27.5 μL of appropriately diluted enzyme was added to 200 μl McIlvaine buffer (20 mM, pH 4.0). After incubation at 50° C. for 5 min, 12.5 μL of the chromogenic peptide solution (5 mg/mL dissolved in dimethyl sulfoxide (DMSO); Sigma-Aldrich, Denmark) were added to the reaction mixture. The reaction was terminated by adding 50 μL of 0.5 M trichloroacetic acid (TCA; Sigma-Aldrich, Denmark). After centrifugation (15,000×g, 5 min), 240 μL of the solution were transferred to a microtiter plate (MTP; Kisker-biotech, Germany) and the absorption was measured in an MTP reader (Molecular Devices, Denmark) at 405 nm. One katal of proteolytic activity was defined as the amount of enzyme required to release 1 mol of p-nitroaniline per second.

[1] = Stability of TRI045 in the presence of pepsin; format: biochemical, Swine; details: 500 units pepsin/mL, pH3.5, 40° C., 60 min
Method: Pepsin solution: Swine pepsin from Sigma (P7000, 674 Sigma units/mg, www.sigma.com) was used in this example and prepared in MilliQ water at 10000 Sigma unit/ml at 10000 Sigma unit/mL
Pre-incubation mixture contained: 2.5 μl TRI045 sample, 95 μl GAT buffer (50 mM glycine-50 mM acetic acid-50 mM Tris, pH3.5), 5 μl pepsin in milliQ water (10000 Sigma unit/ml) (final pepsin unit concentration: 500 Sigma unit/ml reaction mixture) in a half bottom area 96 well Corning MTP. For control, the pre-incubation mixture contained 5 μl water instead of 5 μl pepsin. The mixture was incubated at 40° C. for 60 min and then kept on ice. For assaying the residual activity, the assay mixture contained the pre-incubation mixture 5 μl, 0.1M acetic acid-sodium acetate (pH4.0) 85 μl, 5 μl H-Ala-Ala-Phe-pNA (2.5 mg/ml) from BACHEM.com (L-1095.0250). The 410 nm reading was followed in a microplate reader every 0.5 min at 30° C. N=2.

H-Ala-Ala-Phe-pNA = test: Effect of pH on TRI045 activity with H-Ala-Ala-Phe-pNA; format: biochemical
Method: The tripeptide substrate H-Ala-Ala-Phe-pNA (AAF-pNA from BACHEM.com, L-1095.0250) for sedolisin was prepared at 2.5 mg/ml in DMSO. The reaction was prepared by mixing 8.5 μl AAF-pNA, 7 μl DMSO, 32 μl water and 50 μl buffer with pH4.14-6.57, and 0.8 μl or 1.5 ul TRI045. The reaction was started at 30° C. by the addition of the enzyme TRI045. The initial reaction rate was recorded using a microplate reader at every 0.5 min interval at 410 nm in 96 well plate.

corn soy feed = test: TRI045 plus pepsin and pancreatin on corn soy feed, OPA and BCA assays; format: biochemical; details: TRI045 1000 ppm, swine pepsin and pancreatin present
Method: The in vitro reaction system contained 140 μl 10% (w/v) corn soy feed slurry (14 mg corn soy feed), 10 μl TRI045 in 50m M MES-NaOH pH 6.0, 10 μl swine pepsin (1.14 U/μL in water). The reaction was incubated with shaking at 40° C. for 45 min and subsequently 34 μl swine pancreatin (0.4636 mg/mL in 1M Na-bicarbonate) were added and further incubated for additional 60 min. After incubation, the 96-well plate was centrifuged and supernatants were used for residual TRI045 activity assay and for OPA and BCA assays (see below).
Reference: P. M. Nielsen, D. Petersen and C. Dambmann. Improved Method for Determining Food Protein Degree of Hydrolysis. Journal of Food Science. 66 (2001) 642-646.
For OPA assay the following procedure was carried out.
To quantify the protein concentrations of each protease samples, the Pierce BCA Protein Assay Reagent Kit (Thermo Scientific, cat no. 23228) was used. The TRI045 sample was not purified before quantification. The Pierce BCA Protein Assay Kit is a detergent-compatible formulation based on bicinchoninic acid (BCA) for colorimetric detection and quantification of total proteins. This method combines the well-known reduction of Cu^2+ to Cu^1+ by protein in an alkaline medium with the highly sensitive and selective colorimetric detection of the cuprous cat ion (Cu^+1) using a unique reagent containing bicinchoninic acid. […]

AAF-pNA = test: Residual activity on AAF-pNA after in vitro digestion with pepsin and pancreatin; format: biochemical
Method: In order to test the stability of TRI045 under the in vitro assay conditions described above (incubation in the presence of pepsin at pH3 for 45 min at 40° C. and subsequently in the presence of pancreatin for 60 min at 40° C.). The residual activity of TRI045 was subsequently assayed. The reaction mixture contained 50 μl buffer 0.1M HAC-NaAC (pH5.0), 10 μl the supernatant, and 5 μl AAF-pNA (5 mg/ml in DMSO). The reaction rate was followed at 410 nm and 30° C. every 30 seconds using a microplate reader. As a control, a commercial protease at the same concentration of 1000 ppm was used.

B1: TRI045: tripeptidyl peptidase having pre-pro sequence SEQ ID No. 98 and mature protein SEQ ID No. 99 (protein, listed as Arthroderma benhamiae)
chain: CRSLVTTACLRELYGLGDRVTQARDDNRIGVSGFLEEYAQYRDLELFLSRFEPSAKGFNFSEGLIAGGKNTQGGPGSSTEANLDMQYVVGLSHKAKVTYYSTAGRGPLIPDLSQPSQASNNNEPYLEQLRYLVKLPKNQLPSVLTTSYGDTEQSLPASYTKATCDLFAQLGTMGVSVIFSSGDTGPGSSCQTNDGKNATRFNPIYPASCPFVTSIGGTVGTGPERAVSFSSGGFSDRFPRPQYQDNAVKDYLKILGNQWSGLFDPNGRAFPDIAAQGSNYAVYDKGRMTGVSGTSASAPAMAAIIAQLNDFRLAKGSPVLGFLNPWIYSKGFSGFTDIVDGGSRGCTGYDIYSGLKAKKVPYASWNATKGWDPVTGFGTPNFQALTKVLP
Optimum pH (H-Ala-Ala-Ala-pNA): 4.0
residual activity [1]: over 90%
activity at around pH4 and pH6.5 (H-Ala-Ala-Phe-pNA; AAF-pNA, 30° C.): around 50%
Relative activity with pH 5.01 as 100% (H-Ala-Ala-Phe-pNA; pH 4.1, 0.1M HAC-NaAC): 59.4%
Relative activity with pH 5.01 as 100% (H-Ala-Ala-Phe-pNA; pH 4.6, 0.1M HAC-NaAC): 81.7%
Relative activity with pH 5.01 as 100% (H-Ala-Ala-Phe-pNA; pH 5.0, 0.1M HAC-NaAC): 100.0%
Relative activity with pH 5.01 as 100% (H-Ala-Ala-Phe-pNA; pH 5.6, 0.1M HAC-NaAC): 80.7%
Relative activity with pH 5.01 as 100% (H-Ala-Ala-Phe-pNA; pH 6.0, 0.1M Mes-NaOH): 72.2%
Relative activity with pH 5.01 as 100% (H-Ala-Ala-Phe-pNA; pH 6.6, 0.1M Mes-NaOH): 48.5%
increase of release of free amino groups from corn soy feed (OPA value) (corn soy feed): 9%
increase of protein solubility (corn soy feed; BCA): 5%
time stable to pepsin and pancreatin (AAF-pNA; 40° C.): at least 100 minutes
reaction rate (AAF-pNA; 1000 ppm, after pepsin 45 min and pancreatin 60 min at 40° C., control 4.3 mOD/min): 19.3 mOD/min
stability to pepsin and pancreatin in the presence of corn soy feed (AAF-pNA; 105 min at 40° C., pH range of 3 to 7): stable to pepsin and pancreatin
residual activity on AAF-pNA relative to the commercial protease (AAF-pNA; after subtraction of the control (4.3 mOD/min)): 2.2 times
